Experimental data taken from article PMC2114742.

Target: Turkey gizzard myosin, dephosphorylated (turkey)
Assay: electron microscopy with streptavidin-gold labelling

- percent of the filaments that contained gold particles after 24 h: > 95%
Substance: Turkey gizzard myosin biotinylated with NHS-LC-biotin (complex)
